Source: patent US12281155 (INSTITUT PASTEUR, dated 2025)

How the values were obtained:
[1] = target: Spike protein of SARS-CoV-2 strain XBB.1.16 (hCoV-19/France/GES-IPP7712/2023) (SARS-CoV-2); experiment: cell-based or functional assay
[2] = target: Spike protein of SARS-CoV-2 strain EG.5.1 (hCoV-19/France/GES-IPP15954/2023) (SARS-CoV-2); experiment: cell-based or functional assay
[3] = target: Spike protein of SARS-CoV-2 strain JN.1 (hCoV-19/France/HDF-IPP21391/2023) (SARS-CoV-2); experiment: cell-based or functional assay
[4] = target: Spike protein of SARS-CoV-2 strain BA.2.86 (hCoV-19/France/IDF-IPP17625/2023) (SARS-CoV-2); experiment: cell-based or functional assay
[5] = target: Spike protein of SARS-CoV-2 strain XBB.1.5 (GISAID EPI_ISL_16353849) (SARS-CoV-2); experiment: cell-based or functional assay
[6] = target: Spike protein of SARS-CoV-2 strain D614G (hCoV-19/France/GE1973/2020) (SARS-CoV-2, UniProt P0DTC2 14-1273); experiment: cell-based or functional assay
[7] = target: T1, recombinant SARS-CoV-2 Spike RBD domain, EG.5 variant (SARS-CoV-2); experiment: ELISA on coated RBD
T1 construct: also called RBD EG.5.1 variant

[8] = target: T2, recombinant SARS-CoV-2 Spike RBD domain, BA.4/5 variant (SARS-CoV-2); experiment: ELISA on coated RBD
T2 construct: also called RBD BA.4/5 variant

[9] = target: T3, recombinant SARS-CoV-2 Spike RBD domain, Delta variant (SARS-CoV-2); experiment: ELISA on coated RBD
T3 construct: also called RBD Delta variant

[10] = target: T4, recombinant SARS-CoV-2 Spike RBD domain, BA.2.86 variant (SARS-CoV-2); experiment: ELISA on coated RBD
T4 construct: also called RBD BA.2.86 variant

[11] = target: T5, recombinant SARS-CoV-2 Spike RBD domain, XBB.1.16 variant (SARS-CoV-2); experiment: ELISA on coated RBD
T5 construct: also called RBD XBB.1.16 variant

[12] = target: T6, recombinant SARS-CoV-2 Spike RBD domain, BA.2.75.2 variant (SARS-CoV-2); experiment: ELISA on coated RBD
T6 construct: also called RBD BA.2.75.2 variant

[13] = target: T7, recombinant SARS-CoV-2 Spike RBD domain, XBB.1.5 variant (SARS-CoV-2); experiment: ELISA on coated RBD
T7 construct: also called RBD XBB.1.5 variant

[14] = target: T8, recombinant SARS-CoV-2 Spike RBD domain, BA.2 variant (SARS-CoV-2); experiment: ELISA on coated RBD
T8 construct: also called RBD BA.2. variant

[15] = target: T9, recombinant SARS-CoV-2 Spike RBD domain, BQ.1.1 variant (SARS-CoV-2); experiment: ELISA on coated RBD
T9 construct: also called RBD BQ.1.1. variant

[16] = target: T10, recombinant SARS-CoV-2 Spike RBD domain, JN-1 variant (SARS-CoV-2); experiment: ELISA on coated RBD
T10 construct: also called RBD JN-1 variant

[17] = target: T1, recombinant SARS-CoV-2 Spike RBD …; experiment: competition ELISA, blocking of RBD binding to ACE2 ectodomain
[18] = target: T2, recombinant SARS-CoV-2 Spike RBD …; experiment: as above
[19] = target: T3, recombinant SARS-CoV-2 Spike RBD …; experiment: as above
[20] = target: T4, recombinant SARS-CoV-2 Spike RBD …; experiment: as above
[21] = target: T5, recombinant SARS-CoV-2 Spike RBD …; experiment: as above
[22] = target: T6, recombinant SARS-CoV-2 Spike RBD …; experiment: as above
[23] = target: T7, recombinant SARS-CoV-2 Spike RBD …; experiment: as above
[24] = target: T8, recombinant SARS-CoV-2 Spike RBD …; experiment: as above
[25] = target: T9, recombinant SARS-CoV-2 Spike RBD …; experiment: as above
[26] = target: T10, recombinant SARS-CoV-2 Spike RBD …; experiment: as above

Binder | IC50, S-Fuse neutralization of live virus [1] | IC50, S-Fuse neutralization of live virus [2] | IC50, S-Fuse neutralization of live virus [3] | IC50, S-Fuse neutralization of live virus [4] | IC50, S-Fuse neutralization of live virus [5] | IC50, S-Fuse neutralization of live virus [6] | Binding AUC [7] | Binding AUC [8] | Binding AUC [9] | Binding AUC [10] | Binding AUC [11] | Binding AUC [12] | Binding AUC [13] | Binding AUC [14] | Binding AUC [15] | Binding AUC [16] | Blocking % [17] | Blocking % [18] | Blocking % [19] | Blocking % [20] | further results
SPK002 antibody (parental version Cv2.3194 described in WO 2022/228827) (antibody, V domains shown) VH: EVQLVESGGGLIQPGGSLRLSCAASGITVTSNYMSWVRQAPGKGLEWVSVIYPGGSTFYADSVKGRFTISRDNSKNTLYLQMNSLRAEDTAVYYCARDLVVYGMDVWGQGTTVTVS VL: EIVLTQSPGTLSLSPGERATLSCRASQSVSSSYLAWYQQKPGQAPRLLIYGASSRATGIPGRFSGSGSGTDFTLTISRLEPEDFAIYYCQQGVTFGGGTKVEIK | 156 µg/mL | 100 µg/mL | 100 µg/mL | 100 µg/mL | 216 µg/mL | 0.09 µg/mL | – | – | – | – | – | – | – | – | – | – | – | – | – | – | –
SPK002M A3 antibody (antibody, human IgG1, kappa, V domains shown) VH: EVQLVESGGGLIQPGGSLRLSCAASTITVTSNYMSWVRQAPGKGLEWVSVIYPGGSTFYADSVKGRFTISADNSKNTLYLQMNSLRAEDTAVYYCARDLVVYGMDVWGQGTTVTVSS VL: EIVLTQSPGTLSLSPGERATLSCRASQSVSSSYLAWYQQKPGQAPRLLIYGASSRATGIPGRFSGSGSGTDFTLTISRLEPEDFAVYYCQQGVTFGGGTKVEIKR | 0.36 µg/mL | 5.92 µg/mL | 76.3 µg/mL | 0.05 µg/mL | 0.12 µg/mL | 0.11 µg/mL | 34 | 30 | 31 | 38 | 31 | 34 | 35 | 32 | 30 | 26 | 79% | 96% | 95% | 85% | Blocking % [21]: 95%; Blocking % [22]: 96%; Blocking % [23]: 95%; Blocking % [24]: 94%; Blocking % [25]: 96%; Blocking % [26]: 0%
SPK002M A1 antibody (antibody, human IgG1, kappa, V domains shown) VH: EVQLVESGGGLIQPGGSLRLSCAASTITVTSNYMSWVRQAPGKGLEWVSVIYPGGSTFYADSVKGRFTISADNSKNTLYLQMNSLRAEDTAVYYCARDLVVYGMDVWGQGTTVTVSS VL: EIVLTQSPGTLSLSPGERATLSCRASQGFSSSYLAWYQQKPGQAPRLLIYGASSRATGIPGRFSGSGSGTDFTLTISRLEPEDFAVYYCQQGVTFGGGTKVEIKR | 0.17 µg/mL | 0.15 µg/mL | 1.28 µg/mL | 0.02 µg/mL | 0.07 µg/mL | 0.08 µg/mL | 35 | 31 | 31 | 37 | 30 | 34 | 35 | 33 | 30 | 39 | 90% | 97% | 94% | 85% | Blocking % [21]: 97%; Blocking % [22]: 96%; Blocking % [23]: 97%; Blocking % [24]: 95%; Blocking % [25]: 97%; Blocking % [26]: 71%
SPK002M A2 antibody (antibody, human IgG1, kappa, V domains shown) VH: EVQLVESGGGLIQPGGSLRLSCAASTITVTSNYMSWVRQAPGKGLEWVSVIYPGGSTFYADSVKGRFTISADNSKNTLYLQMNSLRAEDTAVYYCARDLVVYGMDVWGQGTTVTVSS VL: EIVLTQSPGTLSLSPGERATLSCRASQGVSSSYLAWYQQKPGQAPRLLIYGASSRATGIPGRFSGSGSGTDFTLTISRLEPEDFAVYYCQQGVTFGGGTKVEIKR | 0.33 µg/mL | 1.65 µg/mL | 25.3 µg/mL | 0.05 µg/mL | 0.1 µg/mL | 0.1 µg/mL | 35 | 30 | 31 | 38 | 31 | 34 | 36 | 32 | 30 | 37 | 88% | 97% | 95% | 85% | Blocking % [21]: 96%; Blocking % [22]: 96%; Blocking % [23]: 96%; Blocking % [24]: 94%; Blocking % [25]: 97%; Blocking % [26]: 1%
SPK002M A4 antibody (antibody, human IgG1, kappa, V domains shown) VH: EVQLVESGGGLIQPGGSLRLSCAASVITVTSNYMSWVRQAPGKGLEWVSVIYPGGSTFYADSVKGRFTISADNSKNTLYLQMNSLRAEDTAVYYCARDLVVYGMDVWGQGTTVTVSS VL: EIVLTQSPGTLSLSPGERATLSCRASQSVSSSYLAWYQQKPGQAPRLLIYGASSRATGIPGRFSGSGSGTDFTLTISRLEPEDFAVYYCQQGVTFGGGTKVEIKR | 0.36 µg/mL | 2.8 µg/mL | 54.6 µg/mL | 0.04 µg/mL | 0.12 µg/mL | 0.11 µg/mL | 34 | 30 | 31 | 38 | 30 | 34 | 35 | 29 | 30 | 31 | 80% | 96% | 93% | 80% | Blocking % [21]: 95%; Blocking % [22]: 96%; Blocking % [23]: 95%; Blocking % [24]: 93%; Blocking % [25]: 96%; Blocking % [26]: 2%
SPK002M A6 antibody (antibody, human IgG1, kappa, V domains shown) VH: EVQLVESGGGLIQPGGSLRLSCAASGITVTSNYMSWVRQAPGKGLEWVSVIYPGGSTFYADSVKGRFTISADNSKNTLYLQMNSLRAEDTAVYYCARDLVVYGMDVWGQGTTVTVSS VL: EIVLTQSPGTLSLSPGERATLSCRASQSVSSSYLAWYQQKPGQAPRLLIYGASSRATGIPGRFSGSGSGTDFTLTISRLEPEDFAIYYCQQGVTFGGGTKVEIKR | 1.34 µg/mL | 21.1 µg/mL | 100 µg/mL | 0.63 µg/mL | 0.36 µg/mL | 0.07 µg/mL | – | – | – | – | – | – | – | – | – | – | – | – | – | – | –
